# Target: cytochrome bd from Escherichia coli, His6-tagged (His6-CydABX) (E. coli) (UniProt P0ABJ9)
# Assay: SEC; 500 ug purified cytochrome bd on Superose 6 10/300 in 50 mM MOPS, 100 mM NaCl, 0.1% LM, pH 7; UV 280 nm, refractive index and right angle light scattering monitored
substance,measurement,value
"cytochrome bd from Escherichia coli, His6-tagged (His6-CydABX) (from UniProt P0ABJ9 1-522; P0ABK2 1-379) (complex)",stoichiometry N,4
